This experiment addresses T1, Orf8-IL17RA interaction (Homo sapiens, UniProt Q96F46).
T1 construct: co-immunoprecipitation of endogenous IL17RA with Strep-tagged Orf8; host or cells: HEK293T
T1 sequence (Q96F46 33-866): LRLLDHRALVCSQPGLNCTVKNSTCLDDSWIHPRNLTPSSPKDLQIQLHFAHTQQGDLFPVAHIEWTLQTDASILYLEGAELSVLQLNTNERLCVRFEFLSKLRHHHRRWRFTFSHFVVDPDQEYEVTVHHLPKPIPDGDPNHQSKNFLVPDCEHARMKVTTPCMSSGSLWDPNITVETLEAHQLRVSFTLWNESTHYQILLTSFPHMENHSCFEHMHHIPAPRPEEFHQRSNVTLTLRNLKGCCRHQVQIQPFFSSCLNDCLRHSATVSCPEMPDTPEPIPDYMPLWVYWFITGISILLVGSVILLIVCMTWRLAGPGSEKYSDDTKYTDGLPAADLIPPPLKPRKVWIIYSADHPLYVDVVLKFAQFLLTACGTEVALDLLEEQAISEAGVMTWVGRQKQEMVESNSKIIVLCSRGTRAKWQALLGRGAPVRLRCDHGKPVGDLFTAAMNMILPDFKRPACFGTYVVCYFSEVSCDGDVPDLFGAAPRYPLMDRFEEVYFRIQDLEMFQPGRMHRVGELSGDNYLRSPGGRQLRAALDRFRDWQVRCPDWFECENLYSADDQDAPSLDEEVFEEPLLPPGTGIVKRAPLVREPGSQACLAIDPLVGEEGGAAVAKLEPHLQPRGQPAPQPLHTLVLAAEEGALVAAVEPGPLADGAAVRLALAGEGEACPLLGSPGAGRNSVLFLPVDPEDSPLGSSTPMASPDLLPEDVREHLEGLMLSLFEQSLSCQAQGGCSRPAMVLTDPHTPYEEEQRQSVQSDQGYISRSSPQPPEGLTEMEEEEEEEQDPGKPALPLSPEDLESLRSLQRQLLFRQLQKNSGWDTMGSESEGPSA
Format: binding.

In the case of IL-17A, the “Effect on Orf8-IL17RA interaction (co-immunoprecipitation, in words)” value is “does not disrupt the interaction with Orf8”.

These data come from patent US20230395193A1 (priority 2020, published 2023).
